Test results as given in the DeepSol protein solubility set.

Test: soluble on expression in E. coli; label from the status in PepcDB or PDB records

Soluble on expression in E. coli, soluble:
METRRRSSRLQQQTTSDLNAREEPQPSEPPVKRARGAKKNEAPSTAPMPPKTTKKSTKPSRKQGSPIEAELDEMGFELENEEEAEIVVQKSKKNGRKLVKIDENLRISAENGSKSSNFLEENRMEIDEKPGNLAKKSSKNGSRVVKSDEKSENLVQSVPKSTTNGSKVAIIEDDPEIRAENGVKSSKSDEKPDFSAQNGSKLAQNAPNRISRPRRSVTTAKKVSYVPSDDQLELSSSSSELESSSEDEDTEIRPKTGSKIAKKREKSFKISESESSSESPDDESEASEASEDPSIPGPSEPRKRRKIQRKSTLSSGGATTKDLHWPKCSKASIARKTGNPGSKNAAKKPAKSSLRMAQKQKPDQPWKKNLKDYETDRKLAKGERRMLEYRHVAHAYVARGKIEEITYDEAYKLHEMMKKAYFAGRSLLDAAVLDPVEFEKSQKNVKKSEKNDEKNTAGDSSSSEDEWEEMEHFQPPIIDDNIEVSIDHEGGGGDDGEEVVKDWWAIYLRQEINRKIREMWENTHKLLFCLLRGLELTTRLVVNVRAIPRRWDKTQQKELQNELSKFRELSRSRSTTPGEKSLEIQEKSGEKSQKPAKKGQKSEKKAAKKVVVEERNYWVEYWQPREKRWICVDPLHKSVDEPLSIHEHSASPISYVFAIDNKQGICEVSQRYAMDCVKQDFRRRRTNPKWVAWTLFLPPFAANSERKKWEMMQMREDLVKRPLPTVMSEYKNHPLYALEKDLLKFEAIYPPPATQKPLGQIRGHNVYPRSTVFTLQGENNWLKLARSVKIGEKPYKIVKARPDPRIPVEDREDKFLDVYGYWQTEKYRRPPLKNGKIPHNEYGNVYMFNENMCPLDCTYLKLSGLVQISRKLGKQCIPAVVGWAFDGGFTHPVIDGAIVLEKDAIDFINAWEKLESGRAEKEEKQRVEKIHENWKKLIKGMLRLAYVRKQFGHPAAEKPTKRQKIGGKTEEIEENEGGAGPPSSVDHITDNTEQITPMHGFSLDDFINKKK
MSLIYLRKANERGHANHGWLDSWHTFSFANYYDPNFMGFSALRVINDDVIEAGQGFGTHPHKDMEILTYVLEGTVEHQDSMGNKEQVPAGEFQIMSAGTGIRHSEYNPSSTERLHLYQIWIMPEENGITPRYEQRRFDAVQGKQLVLSPDARDGSLKVHQDMELYRWALLKDEQSVHQIAAERRVWIQVVKGNVTINGVKASTSDGLAIWDEQAISIHADSDSEVLLFDLPPVEGGSHHHHHH
MPTDIFSFKQFDIDQTGCAMRVGTDGVLLGAWAGEDAAGSIPQHCLDIGTGTGLIALMLAQRFPQARVQGIEIDPIAAECARANAAASPFSDRIVIASGDILDSSLESLIGNQRFDLIVSNPPFFKSSMHAPDRQRTMARHEETLPLEKLICRASELLSPQGRLALITPRDRLKDLRLYAATYRLVSSRLTEVRTLPHKEPKRLLSEWRPADTAIDRSPFTDTLIIHPATGYYSPEYVRLTEPFYTTSFRILAVG
MAHHHHHHMKGNKGANIAYPDKYHKVTEFFDREYGDLETCTKLNDCQKLLFYALRQQVEHGPCTSGAPFIWQVRERAKHDAWKQLGAMTKFEAMVHFVTHLEECIGGNVDWGEKLRDLNGMRDQQRVGVENGTGESNANEQTERGVSEAHWDADVQAHLQPSAENIEYLAREVMRLRGELQQVRPNRVVPTPIVVPPRKPIDYVSTKNIVPPARTLATVATRTALLNAQTTNNLVERQPQGWGEWFGLI
SLRVMLPNKKALEIIRKYMKIYNGKNEKDIKERLIKELKEEHVLVETEDGTYTLKAEDEEEMMHSKVGALKEAIYKFAKPSKITDLSNPRVLDLCSGMGYNAIAALHYNKNAEIDMVEICEEVLFLTLFLDIPYKEHEIIKDKVREYFLNKIGIEYKSDYDNINLYVGDARKFIIKSDKKYNVVFHDAFSPKRDPTLYTYDFLKEIYKRMEDNGVLISYSSAIPFRSALVDCGFVISEKESVGRKRGITLAYKNPNFKPNRINEVDERVIALSVIALPYRDETLSLTKDKIIEDREERREKLKEKLIKIGKYLSTKQIKKGNIPEEILKIQKEDLNSSEIIKKMRLKFFKDANIFIL

Soluble on expression in E. coli, not soluble:
MGSDKIHHHHHHMDVIFSIFLETFGDPIGQQPVPPAAVDHYQGKLPNRLLEYWQDHGWCGYGGGLFWLVNPQEYQGVVASWLAGTHFEACDTYHLIARSAFGDLYLWGEKTGSVLTIAAYHSRYLDGAHSSGDEERDNKIHGLLMWLMTECVYFDDLFEPARERLGTLGSDEMYGFVPALMLGGPDSLERLEKLKAVEHLVLLSQLSELEPYELTGEEDE
MGSDKIHHHHHHMKKNVQIKGTKSGISIFLSDKASISELQQELSQLLADQKQNPYSGEKLEVQVQIGNRLFSEEEEREISTIIHNNSQMKISAFYSNVMSKDEAKKWKENDQIFSMATIIRSGQVVQVPGDFLLIGDVNPGGQIRSNGNVFVLGNIKGIIHAGFEGDENAVVAGKFLYPSQVRIAGKVYGFDSEDYKEVADTDLFSAFVNDAGEIVIDEIHKIRKIRPEISNFQGGR
MDEGIRASGGIRACQTGKQKQGRKRPVTGKKRIVVGMSGGVDSSVTAWLLKQQGHEVIGVFMQNWEDDNDDEYCSIKQDALDAMSVADIVGIDMEIVNFAKEYKDRVFSYFLKEYSAGRTPNPDVLCNAEIKFKAFLDYAMELGADCIATGHYARKLEQDGTHYLMKAVDHTKDQSYFLYRLQQHQLAKAIFPLGDIRKTEVRRLAEEAGLPTAAKKDSTGICFIGERPFREFLQRYLPTSPGQMVTPDGKVVGEHIGLMYYTLGQRKGLTIGGSRDGNGEPWFVAGKDIPGNKLIVVQGHDHPLLLKPTLSMADLSWTLPDAPAPGEYSAKNRYRMADAACTLSPIVDGQASLTFQEKQWAVTPGQSAVLYHGDICLGGGIIQLEHHHHHH
MGSDKIHHHHHHMSNFNFDFAENDFGPLAAKMRPTSLEQYFGQSHLIGEGKPLRKAIQAGHIYSMIFWGPPGTGKTTLAEIIAQRINAEVERISAVTSGIKEIREAIDRAKQNRLADRKTILFVDEVHRFNKSQQDAFLPHIEDGTVIFIGATTENPSFELNNALLSRARVYVLKSLTTAEIEQVLQQAVEDPKRGLGKERLILEENLLQVLAEYVNGDARLALNCLELMVDMADETENGKKIDRTLLKEVLGERQARFDKQGDRFYDLISALHKSVRGSAPDAALYWYARILTAGGDPLYVARRLLAIASEDVGNADPRAMQVALAAWDCFSRVGAYEGERAIAQAIIYLSVAPKSNAVYTAFNTAKQQAKDLPDYDVPPHLRNAPTNLMKELGYGTEYRYAHDEPNAYAAGENYFPPELKDTQYYFPTNRGMEIQIKEKLERLREQDKSAVKKRYK
SALSSCASLLGSPLSNDFMVLSLSDLLTPWEVIRKRAEAAAILDLVTVIYNPRGSRFPNNLEKVMEYFLKYRSGDTPVGIVRNAYRPDQSAKIVQLKDFSCSEIDMLTTVIIGNSETY
SGGTSSSTAHLAVVNIIGTIDSSNQSVNSEDTNKALERAFEAKNSKAVALNINSPGGSPVQSDEIWQEIRYLKKQHPDKKVYAVIGDMGASGAYYIASAADEIIVNPSSLVGSIGVIMPNYGITGLAQKLGIEDRTLTSGSNKDILSMTKPVNPAQREHIQSVLDNVHAHFINAVKEGRGTRLKSNDPAIFSGLFWTGEQAIQLGVAD
MGSDKIHHHHHHMIHVGTCGFCEAREKYFKDFDAVEVQQTFYKVLQEKTLERWRKKAPEEFTFSIKAFQGVTHPSNSPTWRRSNVKPSKNVGLLRPTNEVLHYWRITLKEAKVLGARFILIQLPRSFKEGEESFENAEKFFNAIDRGDFEIGVELRGWSEKGVKRFVREFDVIDVTDPLLRIPLHKGSVNYYRLHGKYEGGKIIYNHSYSDEELKKIRERVLGWNVEESFVFFNNTSMCRDAKRFKLILDLH
PTAQQLQLTTLDGKPFDPAGLKGKWLLGVADQAACPESCARKLFITRNSHASQGKNVDRVQRVWFITDDGEVPQKVLDAYRGTLMLRARPEQLGRYLLGQDAAAPAALLGPMWVIDPLGNLMLQFPPDVDGVKVRKDISRLLYNSR
MEQPEKNIKLAYDGEIHLAVGASKTEKKWKNRQMSWSDFTQRLKTPTVTQETVEDYKKMPKSKQGEVKDVGAFIGGWLKEGRRKRGNTQQRSLVTLDADSTTLDFWDDVQLLFDHAAAVYTTHSHLVKGPRYRLIIPLSRPVTAEEYEPLARKLAEFFGMDNFDDTTYQAERLMYWPSHSIDGEYFTDNIDLPWVDPDEILSQYEDWRDASFWPESSRGHSIRERQAKKAGDPLEKKGIVGAFCRTYDIISAIETFLPDIYGSTGREDRWTFLEGSTSGGLVIYDDKFAYSHHGTDPVGDQLVNAFDLVRIHLFGDLDEDVKPTTRIDRYPSFKAMREFAMEDKQVKTLIQSEKLSQALEDFDGELDELEEDDKDWFTKLDLEIDEYGQIMASAKNLEVIMLNDPNLKKKIFMNSFSNRIEVKDNLPWRKLDRDKMWKDSDDAGLRVYIEKIYGIVNRGKIDDALVQEIERNSYDPVKEYLESLHWDGVPRVETLLIDYLGAEDTPFIRVVTKKFLTAAVGRIFVPGIKFDYMLVTSGPQGIGKTLLPAKLAGDWFSNSLEGVTGKDSYEALQGVWIMEMGELSATKKADIEATKHFISKQEDIFRVAYGRHKSYFKRRCVFWGTTNDNEFLRDKTGNRRFWPVDVGIQPIKNKVWEMTDETRNQIWAEAVELWQAGEPLYLTDEQEKLALEAQEMHTETSSMEGEILEYLEIPITEDWYKRSKQERREYIQGWGTDIQEEGEIVRNKVCIAEVWNELYNGDSKNIHPAKAAEIRQVLSHLSGWEKNSKGNKGRLRFGPGYGVQVAYLRVTP
PHPADPRLLIGQHVGAGPMVLASPWPRIVAPADFDTRFQGEARDLVLAHERVHLARGDAQINALVVALQCLCWFNPLVHLGAHRLRLDQEMACDEAVLARRPEARRLYAETLLDTLLAPR
MGSDKIHHHHHHSDFLNLTPYSEITAENFYQNEEDFRQAVNGAYEPLRNMYNTEEWNLGEAKSDNTTYIIHIAKSSLDGEDPDQFLETSTNGNVGTKYNNCYVIIGRCNRIISEIDQADFDAEAKSNLKGQALFLRAFCYFNLVQYFGGVPLHTTPSTVYEEAFKPRASVDEVYEQIMKDAQEASDLLPVKSRQEVGRVSKGSAQTLLGNVYMVLKRWAEAEQTLKEVVSSGEYELLADYGSIYSISNKNHKESIFEIQYMQDASLGQQSDFIYRFLPYMTNPSAITGTTPNPCPSNVDHGGFNTPTIDLINAYEKGDKRLDASIGMVEGKLTDSYALDATGVKSIVDYEPAPGITAYPFIKKYFHEHIKPYYTDDNWPVYRYAEVLLFLAEAINEQNRPDEAIHYLNDTFGQASIRGRAGLAPVKSQNVDALREAIYQERRIELAFENKRWTDLLRTGRAVEVMTRHGQKIKANPESYYWPDGVQPVANAYLFNPDKCLLPIPLREIDLNSELKQNPGY
MAHHHHHHMKRTLSLGIEGSANKIGVGVVDQSGTVLSNVRETYITPPGSGFLPRETAIHHSQHVLQVVQRAMHDAAVTPADIDIISYTKGPGMGGPLSVGCTVAKTLSLLWGKPLVGVNHCVGHIEMGRVVTKSENPVVLYVSGGNTQVIAYADHRYRIFGETIDIAVGNCLDRVARLLNISNDPAPGYNIEQKAKKGKCYIRLPYTVKGMDMSFTGILSYIEQLVHHPQFSDSDVREMSKKRHKAAPSLTSMPVPPGETLNTDDICFSLQETIFAMLVEVTERAMSQIKTSDVLIVGGVGCNRRLQEMMQLMAAERGGRCFGMDQRYCIDNGCMIAYAGLLQYLSGSFTTMAEATVTQRFRTDEVYVTWRD
